Test results published in patent publication US20170157251A1 (MacroGenics, published 2017).

Assays:
human CD19 on cells [1] = target: T1, human CD19 on cells (human, UniProt P15391 20-556); experiment: cell-based or functional assay
T1 sequence (looked up): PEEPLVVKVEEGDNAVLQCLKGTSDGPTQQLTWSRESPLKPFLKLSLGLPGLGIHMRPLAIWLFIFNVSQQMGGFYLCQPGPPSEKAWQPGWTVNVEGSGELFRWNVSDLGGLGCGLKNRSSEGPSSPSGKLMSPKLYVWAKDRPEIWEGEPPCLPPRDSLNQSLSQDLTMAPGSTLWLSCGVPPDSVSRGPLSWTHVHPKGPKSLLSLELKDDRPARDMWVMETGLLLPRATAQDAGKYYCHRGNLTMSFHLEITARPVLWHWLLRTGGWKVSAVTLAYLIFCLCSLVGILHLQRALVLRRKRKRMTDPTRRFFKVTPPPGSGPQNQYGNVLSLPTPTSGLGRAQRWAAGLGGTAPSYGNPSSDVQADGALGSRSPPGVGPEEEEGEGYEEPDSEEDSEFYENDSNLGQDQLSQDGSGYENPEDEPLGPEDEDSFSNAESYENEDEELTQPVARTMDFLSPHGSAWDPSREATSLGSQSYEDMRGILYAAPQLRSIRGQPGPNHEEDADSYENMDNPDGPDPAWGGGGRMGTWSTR

[2] = target: cynomolgus monkey CD19 on B cells (cynomolgus monkey); experiment: cell-based or functional assay
human CD19 on cells [3] = target: T1, human CD19 on cells; experiment: cell-based or functional assay; remark: listed apart in the source
human CD19 on cells [4] = target: T1, human CD19 on cells; experiment: cell-based or functional assay; remark: listed apart in the source
Human CD19-His = target: T2, Human CD19-His (human, UniProt P15391 20-291, limits assumed); experiment: SPR (BIAcore), DART-A 0-100 nM, soluble antigen
T2 construct: Soluble antigen in SPR; also called soluble human CD19; not shown: His tag
T2 sequence (looked up): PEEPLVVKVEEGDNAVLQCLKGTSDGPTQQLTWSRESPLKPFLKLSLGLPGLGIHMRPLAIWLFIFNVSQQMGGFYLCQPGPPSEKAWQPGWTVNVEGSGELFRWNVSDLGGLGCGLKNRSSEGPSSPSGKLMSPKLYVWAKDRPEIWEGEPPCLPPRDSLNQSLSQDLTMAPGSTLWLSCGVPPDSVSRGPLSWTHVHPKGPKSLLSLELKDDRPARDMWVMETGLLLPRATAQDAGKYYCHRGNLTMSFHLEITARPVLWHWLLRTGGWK

Cynomolgus CD19-His [5] = target: T3, Cynomolgus CD19-His (cynomolgus monkey, UniProt A0A2K5W8L9 20-292); experiment: SPR (BIAcore), DART-A 0-100 nM, soluble antigen
T3 construct: Soluble antigen in SPR; also called soluble cynomolgus monkey CD19; not shown: His tag
T3 sequence: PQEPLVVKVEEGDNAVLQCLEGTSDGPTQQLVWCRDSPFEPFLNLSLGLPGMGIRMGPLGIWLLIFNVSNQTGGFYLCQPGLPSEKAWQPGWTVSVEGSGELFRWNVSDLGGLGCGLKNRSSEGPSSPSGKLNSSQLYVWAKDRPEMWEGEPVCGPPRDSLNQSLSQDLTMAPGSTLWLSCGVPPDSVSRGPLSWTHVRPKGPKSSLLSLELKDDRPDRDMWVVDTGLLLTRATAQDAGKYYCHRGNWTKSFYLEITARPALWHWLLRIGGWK

human CD19 on cells [6] = target: T1, human CD19 on cells; experiment: cell-based or functional assay; remark: listed apart in the source
human CD19 on cells [7] = target: T1, human CD19 on cells; experiment: cell-based or functional assay; remark: listed apart in the source
human CD19 on cells [8] = target: T1, human CD19 on cells; experiment: cell-based or functional assay; remark: listed apart in the source
human CD19 on cells [9] = target: T1, human CD19 on cells; experiment: cell-based or functional assay; remark: listed apart in the source
[10] = target: T4, cynomolgus monkey CD3 on T cells (cynomolgus monkey, UniProt Q95LI5 22-198; Q95LI8 22-171); experiment: flow cytometry on cynomolgus monkey blood leukocytes, CD4+ and CD8+ gate (T cells); detection with biotinylated anti-E-coil/K-coil mAb and streptavidin-PE
T4 construct: T cells were gated as CD4+ and CD8+; also called CD3 on cynomolgus monkey CD4+ and CD8+ T cells
T4 sequence (Q95LI5 22-198 limits assumed, chain 1 of 2): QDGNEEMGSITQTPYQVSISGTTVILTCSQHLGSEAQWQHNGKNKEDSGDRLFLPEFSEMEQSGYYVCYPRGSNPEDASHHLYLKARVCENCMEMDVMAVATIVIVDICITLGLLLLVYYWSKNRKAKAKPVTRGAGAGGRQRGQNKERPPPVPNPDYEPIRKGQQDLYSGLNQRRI
T4 sequence (Q95LI8 22-171 limits assumed, chain 2 of 2): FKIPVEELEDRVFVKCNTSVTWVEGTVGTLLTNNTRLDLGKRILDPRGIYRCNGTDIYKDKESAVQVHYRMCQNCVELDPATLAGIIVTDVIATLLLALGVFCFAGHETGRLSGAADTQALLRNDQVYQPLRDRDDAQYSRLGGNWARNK

[11] = target: T5, soluble human CD19-biotin (human, UniProt P15391 20-291, limits assumed, biotin (site not stated)); experiment: bifunctional (bispecific) ELISA: plate coated with soluble human CD3ε/δ, DART titrated, detected with soluble human CD19-biotin; the value reflects simultaneous engagement of both antigens
T5 construct: Detection antigen of the bifunctional ELISA
T5 sequence (looked up): T2 sequence (looked up)

Cynomolgus CD19-His [12] = target: T3, Cynomolgus CD19-His; experiment: SPR (BIAcore), comparison of KD against human CD19-His
human CD3 on T cells = target: T6, human CD3 on T cells (human, UniProt P07766 23-207; P04234 22-171); experiment: flow cytometry on human blood leukocytes, CD4+ and CD8+ gate (T cells); detection with biotinylated anti-E-coil/K-coil mAb and streptavidin-PE
T6 construct: also called CD3 on human CD4+ and CD8+ T cells; copies: 1 + 1
T6 sequence (P07766 23-207 limits assumed, chain 1 of 2): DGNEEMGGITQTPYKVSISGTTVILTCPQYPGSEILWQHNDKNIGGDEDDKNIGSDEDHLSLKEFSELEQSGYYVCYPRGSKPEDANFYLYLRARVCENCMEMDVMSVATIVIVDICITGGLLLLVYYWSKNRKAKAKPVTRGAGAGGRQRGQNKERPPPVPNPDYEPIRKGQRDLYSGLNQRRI
T6 sequence (P04234 22-171 limits assumed, chain 2 of 2): as the sequence (Q95LI8 22-171 limits assumed, chain 2 of 2) above, with V5I, K15N, V20I, T32S, N33D, N34I, A64T, N74S, L83V, R141H counted along it

human CD19 on cells [13] = target: T1, human CD19 on cells; experiment: cell-based or functional assay; remark: listed apart in the source

B1: DART-A (CD19×CD3 bi-specific monovalent Fc diabody) (bispecific antibody)
chain 1: ENVLTQSPATLSVTPGEKATITCRASQSVSYMHWYQQKPGQAPRLLIYDASNRASGVPSRFSGSGSGTDHTLTISSLEAEDAATYYCFQGSVYPFTFGQGTKLEIKGGGSGGGGEVQLVESGGGLVQPGGSLRLSCAASGFTFSTYAMNWVRQAPGKGLEWVGRIRSKYNNYATYYADSVKGRFTISRDDSKNSLYLQMNSLKTEDTAVYYCVRHGNFGNSYVSWFAYWGQGTLVTVSSASTKGEVAACEKEVAALEKEVAALEKEVAALEKGGGDKTHTCPPCPAPEAAGGPSVFLFPPKPKDTLMISRTPEVTCVVVDVSHEDPEVKFNWYVDGVEVHNAKTKPREEQYNSTYRVVSVLTVLHQDWLNGKEYKCKVSNKALPAPIEKTISKAKGQPREPQVYTLPPSREEMTKNQVSLWCLVKGFYPSDIAVEWESNGQPENNYKTTPPVLDSDGSFFLYSKLTVDKSRWQQGNVFSCSVMHEALHNHYTQKSLSLSPGK
chain 2: QAVVTQEPSLTVSPGGTVTLTCRSSTGAVTTSNYANWVQQKPGQAPRGLIGGTNKRAPWTPARFSGSLLGGKAALTITGAQAEDEADYYCALWYSNLWVFGGGTKLTVLGGGGSGGGGQVTLRESGPALVKPTQTLTLTCTFSGFSLSTSGMGVGWIRQPPGKALEWLAHIWWDDDKRYNPALKSRLTISKDTSKNQVFLTMTNMDPVDTATYYCARMELWSYYFDYWGQGTTVTVSSASTKGKVAACKEKVAALKEKVAALKEKVAALKE
chain 3: not shown
notes: Three covalently bonded chains; one CD19 site and one CD3 site; Fc with L234A/L235A, knob/hole, H435R on third chain; also called CD19×CD3 bi-specific molecule; CD19×CD3 bi-specific DART-A
- EC50 of redirected killing of Raji/GF cells, E:T = 2.5:1, 48 hours (human CD19 on cells [1]): 1.08 pM
- EC50 of redirected killing of Raji/GF cells, E:T = 5:1, 24 hours (human CD19 on cells [1]): 0.67 pM
- EC50 of redirected killing of Raji/GF cells, E:T = 5:1, 48 hours (human CD19 on cells [1]): 0.38 pM
- EC50 of redirected killing of Raji/GF cells, E:T = 10:1, 24 hours (human CD19 on cells [1]): 0.14 pM
- EC50 of redirected killing of Raji/GF cells, E:T = 10:1, 48 hours (human CD19 on cells [1]): 0.0441 pM
- EC50 of autologous B cell depletion, cynomolgus monkey PBMCs, donor Cyno 5 (E:T = 3:1) [2]: 166 pM
- EC50 of autologous B cell depletion, cynomolgus monkey PBMCs, donor Cyno 6 (E:T = 2:1) [2]: 859 pM
- EC50 of autologous B cell depletion, cynomolgus monkey PBMCs, donor Cyno 7 (E:T = 3:1) [2]: 107 pM
- EC50 of autologous B cell depletion, cynomolgus monkey PBMCs, donor Cyno 8 (E:T = 7:1) [2]: 239 pM
- mean EC50 of autologous B cell depletion, cynomolgus monkey PBMCs [2]: 343 pM
- EC50 of autologous B cell depletion, human PBMCs, donor Human 5 (E:T = 8:1) (human CD19 on cells [3]): 6.27 pM
- EC50 of autologous B cell depletion, human PBMCs, donor Human 6 (E:T = 8:1) (human CD19 on cells [3]): 2.75 pM
- EC50 of autologous B cell depletion, human PBMCs, donor Human 7 (E:T = 5:1) (human CD19 on cells [3]): 5.52 pM
- EC50 of autologous B cell depletion, human PBMCs, donor Human 8 (E:T = 9:1) (human CD19 on cells [3]): 1.84 pM
- mean EC50 of autologous B cell depletion, human PBMCs (human CD19 on cells [3]): 4.2 pM
- mean EC50 of IFN-γ release, CTL assay, purified human T cells with Raji/GF tumor cells (E:T = 10:1), n = 2 (human CD19 on cells [4]): 5.51 pM
- mean EC50 of IL-2 release, CTL assay, purified human T cells with Raji/GF tumor cells (E:T = 10:1), n = 2 (human CD19 on cells [4]): 6.32 pM
- mean EC50 of TNF-α release, CTL assay, purified human T cells with Raji/GF tumor cells (E:T = 10:1), n = 2 (human CD19 on cells [4]): 3.71 pM
- mean EC50 of cytotoxicity, CTL assay, HBL-2 (n = 5), human T cells E:T = 10:1 (human CD19 on cells [4]): 0.11 pM
- mean EC50 of cytotoxicity, CTL assay, Jeko-1 (n = 3), human T cells E:T = 10:1 (human CD19 on cells [4]): 0.15 pM
- mean EC50 of cytotoxicity, CTL assay, Raji/GF (n = 5), human T cells E:T = 10:1 (human CD19 on cells [4]): 0.31 pM
- Kd (Human CD19-His): 2000 pM
- koff (Human CD19-His): 0.00056 s⁻¹
- kon (Human CD19-His): 280000 M⁻¹ s⁻¹
- Kd (Cynomolgus CD19-His [5]): 20300 pM
- koff (Cynomolgus CD19-His [5]): 0.0047 s⁻¹
- kon (Cynomolgus CD19-His [5]): 240000 M⁻¹ s⁻¹
- EC50 of autologous B cell depletion, human PBMCs, 0 nM ibrutinib, 48 hours (human CD19 on cells [6]): 0.79 ng/mL
- EC50 of redirected killing of Raji/GF cells, E:T = 1:1, 72 hours (human CD19 on cells [7]): 2.79 pM
- EC50 of redirected killing of Raji/GF cells, E:T = 1:1, 96 hours (human CD19 on cells [7]): 0.44 pM
- EC50 of redirected killing of Raji/GF cells, E:T = 2.5:1, 72 hours (human CD19 on cells [7]): 1.54 pM
- EC50 of redirected killing of Raji/GF cells, E:T = 2.5:1, 96 hours (human CD19 on cells [7]): 0.422 pM
- EC50 of cytotoxicity against Raji/GF target cells with cynomolgus monkey PBMCs as effector cells (E:T = 30:1) (human CD19 on cells [8]): 0.013 pM
- EC50 of redirected killing of HBL-2 cells, human T cells, E:T 10:1 (average) (human CD19 on cells [8]): 10.5 pM
- EC50 of redirected killing of Jeko-1 cells, human T cells, E:T 10:1 (average) (human CD19 on cells [8]): 0.146 pM
- EC50 of redirected killing of Raji/GF cells, human T cells, E:T 10:1 (average) (human CD19 on cells [8]): 0.307 pM
- EC50 of redirected killing of Raji/GF cells, T cells cultured 24 hours with 0 nM ibrutinib, E:T 10:1, 24 hours (human CD19 on cells [9]): 0.042 ng/mL
- EC50 of redirected killing of Raji/GF cells, T cells cultured 48 hours with 0 nM ibrutinib, E:T 10:1, 24 hours (human CD19 on cells [9]): 0.0016 ng/mL
- EC50 of redirected killing of Raji/GF cells, T cells cultured 72 hours with 0 nM ibrutinib, E:T 10:1, 24 hours (human CD19 on cells [9]): 0.0031 ng/mL
- EC50 of redirected killing of Raji/GF cells, T cells pretreated 24 hours with 25 nM ibrutinib (human CD19 on cells [9]): 0.028 ng/mL
- EC50 of redirected killing of Raji/GF cells, T cells pretreated 24 hours with 250 nM ibrutinib (human CD19 on cells [9]): 0.033 ng/mL
- EC50 of redirected killing of Raji/GF cells, T cells pretreated 24 hours with 750 nM ibrutinib (human CD19 on cells [9]): 0.037 ng/mL
- EC50 of redirected killing of Raji/GF cells, T cells pretreated 24 hours with 2500 nM ibrutinib (human CD19 on cells [9]): 0.104 ng/mL
- EC50 of redirected killing of Raji/GF cells, T cells pretreated 48 hours with 25 nM ibrutinib (human CD19 on cells [9]): 0.0015 ng/mL
- EC50 of redirected killing of Raji/GF cells, T cells pretreated 48 hours with 250 nM ibrutinib (human CD19 on cells [9]): 0.0011 ng/mL
- EC50 of redirected killing of Raji/GF cells, T cells pretreated 48 hours with 750 nM ibrutinib (human CD19 on cells [9]): 0.0012 ng/mL
- EC50 of redirected killing of Raji/GF cells, T cells pretreated 48 hours with 2500 nM ibrutinib (human CD19 on cells [9]): 0.0044 ng/mL
- EC50 of redirected killing of Raji/GF cells, T cells pretreated 72 hours with 25 nM ibrutinib (human CD19 on cells [9]): 0.0021 ng/mL
- EC50 of redirected killing of Raji/GF cells, T cells pretreated 72 hours with 250 nM ibrutinib (human CD19 on cells [9]): 0.002 ng/mL
- EC50 of redirected killing of Raji/GF cells, T cells pretreated 72 hours with 750 nM ibrutinib (human CD19 on cells [9]): 0.0018 ng/mL
- EC50 of redirected killing of Raji/GF cells, T cells pretreated 72 hours with 2500 nM ibrutinib (human CD19 on cells [9]): 0.0085 ng/mL
- binding result [10]: binds
- EC50 (read off the curve) [11]: ~80 ng/mL
- fold lower affinity than for human CD19 (Cynomolgus CD19-His [12]): ~10 fold
- binding result (human CD3 on T cells): binds
- EC50 of redirected killing of Raji/GF cells, 0 nM ibrutinib, CTL assay 24 hours, E:T 10:1 (human CD19 on cells [13]): 0.014 ng/mL
- EC50 of redirected killing of Raji/GF cells, 0 nM ibrutinib, CTL assay 48 hours, E:T 10:1 (human CD19 on cells [13]): 0.0022 ng/mL
